The target of experiment [1] is T1, cleaved active Rac1 (Rac^Q61L) (UniProt P63000 1-192, Q61L). The experiment in a line: pull-down; purified proteins: GST-Armus 1-550 incubated with cleaved Rac Q61L with or without increasing amounts of MBP-LC3 (molar ratios shown in the figure); probed for Rac1 or LC3. To be noted: both partners purified.
In experiment [2] the target is T1, cleaved active Rac1 (Rac^Q61L). As to the kind of experiment: pull-down; purified proteins: GST fusion protein (GST-LC3, or GST-Armus 1-550 wild-type or mutants) incubated with cleaved Rac Q61L; probed for Rac1. To be noted: both partners purified.

The results in this text go back to article PMC3898768, “The TBC/RabGAP Armus Coordinates Rac1 and Rab7 Functions during Autophagy” (Developmental Cell, 2013).

B1: GST-Armus 1-550 wild-type (domain or fragment)
chain: MEGAGENAPESSSSAPGSEESARDPQVPPPEEESGDCARSLEAVPKKLCGYLSKFGGKGPIRGWKSRWFFYDERKCQLYYSRTAQDANPLDSIDLSSAVFDCKADAEEGIFEIKTPSRVITLKAATKQAMLYWLQQLQMKRWEFHNSPPAPPATPDAALAGNGPVLHLELGQEEAELEEFLCPVKTPPGLVGVAAALQPFPALQNISLKHLGTEIQNTMHNIRGNKQAQGTGHEPPGEDSPQSGEPQREEQPLASDASTPGREPEDSPKPAPKPSLTISFAQKAKRQNNTFPFFSEGITRNRTAQEKVAALEQQVLMLTKELKSQKELVKILHKALEAAQQEKRASSAYLAAAEDKDRLELVRHKVRQIAELGRRVEALEQERESLAHTASLREQQVQELQQHVQLLMDKNHAKQQVICKLSEKVTQDFTHPPDQSPLRPDAANRDFLSQQGKIEHLKDDMEAYRTQNCFLNSEIHQVTKIWRKVAEKEKALLTKCAYLQARNCQVESKYLAGLRRLQEALGDEASECSELLRQLVQEALQWEAGEASSD
notes: Armus (TBC1D2A, isoform 1; UniProt Q9BYX2-1), residues 1-550; also called GST-Armus_(1–550) wild-type (WT); source: 'purified proteins'
In the case of B1, the binding result in experiment [1] is “binds”.

B2: GST-Armus 1-550 W142A,Y510A (domain or fragment)
chain: MEGAGENAPESSSSAPGSEESARDPQVPPPEEESGDCARSLEAVPKKLCGYLSKFGGKGPIRGWKSRWFFYDERKCQLYYSRTAQDANPLDSIDLSSAVFDCKADAEEGIFEIKTPSRVITLKAATKQAMLYWLQQLQMKRAEFHNSPPAPPATPDAALAGNGPVLHLELGQEEAELEEFLCPVKTPPGLVGVAAALQPFPALQNISLKHLGTEIQNTMHNIRGNKQAQGTGHEPPGEDSPQSGEPQREEQPLASDASTPGREPEDSPKPAPKPSLTISFAQKAKRQNNTFPFFSEGITRNRTAQEKVAALEQQVLMLTKELKSQKELVKILHKALEAAQQEKRASSAYLAAAEDKDRLELVRHKVRQIAELGRRVEALEQERESLAHTASLREQQVQELQQHVQLLMDKNHAKQQVICKLSEKVTQDFTHPPDQSPLRPDAANRDFLSQQGKIEHLKDDMEAYRTQNCFLNSEIHQVTKIWRKVAEKEKALLTKCAYLQARNCQVESKALAGLRRLQEALGDEASECSELLRQLVQEALQWEAGEASSD
notes: Armus (TBC1D2A, isoform 1; UniProt Q9BYX2-1), residues 1-550, double point mutant; also called Armus^W142A,Y510A; source: 'purified proteins'
In the case of B2, in experiment [2], the binding result is listed as “binds”.
